# Measured values: patent US20260234223A1
# Biological target: SARS-CoV-2 Delta Spike antigen (SARS-CoV-2 Delta)
row,Substance,EC50
1,Anti-S1 antibody DZIF-10c,6.9 nM
2,Anti-S1 mAb ImdevimAb (antibody),0.01 nM
